Measurements taken from patent US20210130436A1.
Values joined by “and” are separate entries in the source; they are usually repeats but may differ in a detail not shown here. Equal values may be shown once. One block for each substance: values may come before it.

Key:
[1] = molecular target: CD28, endogenously expressed on Jurkat/IL2 reporter cells (human) (UniProt P10747); experiment: flow cytometry on Jurkat/IL2 reporter cells (endogenous CD28); PE anti-human Fc
human CTLA-4 (human) [2] = molecular target: human CTLA-4 (human) (UniProt P16410); experiment: flow cytometry, CHO cells stably expressing huCTLA4, 33.3 nM, PE anti-human Fc
PD-L1 (human) [3] = molecular target: PD-L1 (human) (UniProt Q9NZQ7); experiment: flow cytometry, CHO cells stably expressing huPD-L1, 33.3 nM, PE anti-human Fc
CD28 (human) = CD28 (human) (UniProt P10747); experiment: flow cytometry, Jurkat/IL2 reporter cells (endogenous CD28), 33.3 nM, PE anti-human Fc
PD-L1 (human) [4] = molecular target: PD-L1 (human) (UniProt Q9NZQ7); experiment: cell-based or functional assay
PD-L1 (human) [5] = molecular target: PD-L1 (human) (UniProt Q9NZQ7); experiment: flow cytometry, CHO cells stably expressing PD-L1
[6] = molecular target: human PD-L1 on CHO cells (human) (UniProt Q9NZQ7); experiment: cell-based or functional assay
[7] = molecular target: human CD28, endogenous on Jurkat/IL2 reporter cells (human) (UniProt P10747); experiment: flow cytometry, Jurkat/IL2 reporter cells (endogenous CD28), PE anti-human Fc
human CTLA-4 (human) [8] = molecular target: human CTLA-4 (human) (UniProt P16410); experiment: flow cytometry, CHO cells stably expressing CTLA4
[9] = molecular target: CD28, endogenously expressed on Jurkat/IL2 reporter cells (human) (UniProt P10747); experiment: flow cytometry, Jurkat/IL2 reporter cells (endogenous CD28), PE anti-human Fc
[10] = molecular target: CD28, endogenously expressed on Jurkat/IL2 reporter cells (human) (UniProt P10747); experiment: flow cytometry, Jurkat/IL2 reporter cells (endogenous CD28)
[11] = molecular target: human CTLA4 (huCTLA4), full-length, stably expressed on CHO cells (human) (UniProt P16410); experiment: flow cytometry, CHO cells expressing huCTLA4
[12] = molecular target: human CTLA4, full-length, expressed on transfected HEK293 (Expi293F) cells (human) (UniProt P16410); experiment: flow cytometry, Fc fusion on HEK293 cells transfected with full-length human CTLA4
[13] = molecular target: PD-L1 expressed on CHO/OKT3/PD-L1 artificial antigen presenting cells (human) (UniProt Q9NZQ7); experiment: cell-based or functional assay
[14] = molecular target: human PD-L1, full-length, expressed on transfected HEK293 (Expi293F) cells (human) (UniProt Q9NZQ7); experiment: flow cytometry, Fc control on HEK293 cells transfected with full-length human PD-L1
[15] = molecular target: human CTLA4, full-length, expressed on transfected HEK293 (Expi293F) cells (human) (UniProt P16410); experiment: flow cytometry, Fc control on HEK293 cells transfected with full-length human CTLA4
[16] = molecular target: human CD28, full-length, expressed on transfected HEK293 (Expi293F) cells (human) (UniProt P10747); experiment: flow cytometry, Fc control on HEK293 cells transfected with full-length human CD28
PD-L1 (human) [17] = molecular target: PD-L1 (human) (UniProt Q9NZQ7); experiment: flow cytometry on CHO cells stably expressing PD-L1
CD112R [18] = molecular target: CD112R (UniProt Q6DKI7); experiment: flow cytometry, protein at 25 nM on cells expressing CD112R
Target sequence in this assay (Q6DKI7 41-326 limits assumed, form in doubt): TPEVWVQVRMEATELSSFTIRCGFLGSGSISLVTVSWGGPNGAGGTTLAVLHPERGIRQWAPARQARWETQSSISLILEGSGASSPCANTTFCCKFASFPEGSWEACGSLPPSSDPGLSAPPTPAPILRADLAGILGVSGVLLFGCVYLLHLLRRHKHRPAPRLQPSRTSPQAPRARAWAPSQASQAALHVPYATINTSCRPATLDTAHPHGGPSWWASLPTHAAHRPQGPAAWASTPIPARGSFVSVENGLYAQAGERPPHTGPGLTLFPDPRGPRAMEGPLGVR

CD226 = CD226 (UniProt Q15762); experiment: flow cytometry, protein at 25 nM on cells expressing CD226
[19] = molecular target: CD80 expressed on cells (human) (UniProt P33681); experiment: flow cytometry; 20 nM protein on cells expressing CD80
[20] = molecular target: PD-1 expressed on cells (Homo sapiens (Human)) (UniProt Q15116); experiment: flow cytometry; 20 nM protein on cells expressing PD-1
CD112R [21] = molecular target: CD112R (UniProt Q6DKI7); experiment: flow cytometry on CD112R-expressing cells
Target sequence in this assay (Q6DKI7 41-326 limits assumed): as the sequence (Q6DKI7 41-326 limits assumed, form in doubt) above

[22] = molecular target: PD-1 expressed on cells (Homo sapiens (Human)) (UniProt Q15116); experiment: flow cytometry; 20 nM Fc fusion on cells expressing PD-1
TIGIT [23] = molecular target: T1, TIGIT (UniProt Q495A1); experiment: flow cytometry on cells expressing TIGIT, Fc fusion at 100 nM
T1 sequence (looked up): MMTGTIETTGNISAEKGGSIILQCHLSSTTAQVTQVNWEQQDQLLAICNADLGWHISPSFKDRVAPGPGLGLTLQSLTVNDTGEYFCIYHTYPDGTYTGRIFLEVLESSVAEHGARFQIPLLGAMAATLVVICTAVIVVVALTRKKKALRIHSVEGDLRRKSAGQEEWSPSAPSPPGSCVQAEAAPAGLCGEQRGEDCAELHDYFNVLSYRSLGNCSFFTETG

TIGIT [24] = molecular target: T1, TIGIT; experiment: flow cytometry, MFI ratio to wildtype CD155 ECD-Fc, TIGIT cells
[25] = molecular target: human CTLA4 (full-length, expressed on CHO cells) (human) (UniProt P16410); experiment: flow cytometry, CHO cells expressing huCTLA4, PE anti-human Fc
[26] = molecular target: human CTLA-4, full-length, on transduced CHO cells (human) (UniProt P16410); experiment: as above
[27] = molecular target: PD-1 (Homo sapiens (Human)) (UniProt Q15116); experiment: flow cytometry on Jurkat/PD-1 cells, 50 nM
CD96 = molecular target: T2, CD96 (UniProt P40200); experiment: flow cytometry on cells expressing the target, 20 nM Fc fusion
T2 sequence (looked up): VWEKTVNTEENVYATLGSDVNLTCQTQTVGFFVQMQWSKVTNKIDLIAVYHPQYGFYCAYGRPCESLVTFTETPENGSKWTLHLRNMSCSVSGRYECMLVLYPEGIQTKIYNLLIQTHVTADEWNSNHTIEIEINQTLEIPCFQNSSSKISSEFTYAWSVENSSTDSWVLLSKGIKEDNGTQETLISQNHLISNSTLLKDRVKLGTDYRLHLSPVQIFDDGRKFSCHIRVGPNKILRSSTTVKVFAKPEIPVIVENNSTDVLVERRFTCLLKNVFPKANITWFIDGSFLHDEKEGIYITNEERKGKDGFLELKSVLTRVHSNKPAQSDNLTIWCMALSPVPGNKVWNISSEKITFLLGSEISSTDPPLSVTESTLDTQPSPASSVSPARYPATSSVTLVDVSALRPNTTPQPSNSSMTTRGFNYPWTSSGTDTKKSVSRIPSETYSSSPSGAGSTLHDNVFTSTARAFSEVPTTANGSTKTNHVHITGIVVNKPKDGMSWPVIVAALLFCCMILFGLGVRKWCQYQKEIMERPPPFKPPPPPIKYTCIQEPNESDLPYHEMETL

Sequence of PD-1 (Homo sapiens (Human)) (Q15116 21-288): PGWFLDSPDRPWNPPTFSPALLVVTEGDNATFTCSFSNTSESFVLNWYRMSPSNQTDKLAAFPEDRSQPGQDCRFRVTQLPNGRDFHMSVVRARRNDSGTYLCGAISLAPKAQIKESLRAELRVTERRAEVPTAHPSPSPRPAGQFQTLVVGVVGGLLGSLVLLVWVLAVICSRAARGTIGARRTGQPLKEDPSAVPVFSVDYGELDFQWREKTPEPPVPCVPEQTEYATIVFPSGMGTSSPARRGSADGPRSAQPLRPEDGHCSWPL
Sequence of PD-1 expressed on cells (Homo sapiens (Human)) (Q15116 21-288): as above
Sequence of human CTLA-4 (human) (P16410 36-223): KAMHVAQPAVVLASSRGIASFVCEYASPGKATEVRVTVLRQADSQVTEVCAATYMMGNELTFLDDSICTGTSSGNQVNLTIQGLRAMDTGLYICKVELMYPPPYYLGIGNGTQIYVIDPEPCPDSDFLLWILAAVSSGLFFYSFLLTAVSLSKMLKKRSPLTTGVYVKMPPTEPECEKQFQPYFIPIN
Sequence of human CTLA4 (full-length, expressed on CHO cells) (human) (P16410 36-223): as above
Sequence of human CTLA4, full-length, expressed on transfected HEK293 (Expi293F) cells (human) (P16410 36-223): as above
Sequence of CD226 (Q15762 19-336): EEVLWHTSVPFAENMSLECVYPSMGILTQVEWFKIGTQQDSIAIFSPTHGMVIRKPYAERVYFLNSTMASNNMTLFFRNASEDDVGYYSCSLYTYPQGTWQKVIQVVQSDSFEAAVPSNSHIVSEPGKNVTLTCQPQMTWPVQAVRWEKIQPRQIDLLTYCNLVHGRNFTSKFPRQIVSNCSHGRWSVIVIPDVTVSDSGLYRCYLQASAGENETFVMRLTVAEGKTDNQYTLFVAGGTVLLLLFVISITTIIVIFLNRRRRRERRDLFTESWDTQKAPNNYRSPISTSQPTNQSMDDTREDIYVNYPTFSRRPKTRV
Sequence of human CTLA4 (huCTLA4), full-length, stably expressed on CHO cells (human) (P16410 36-223): as the sequence (P16410 36-223) above
Sequence of human CTLA-4, full-length, on transduced CHO cells (human) (P16410 36-223): as above

MFI at 33.3 nM (human CTLA-4 (human) [2]): 125 MFI
MFI at 33.3 nM (PD-L1 (human) [3]): 45 MFI
MFI at 33.3 nM (CD28 (human)): 15 MFI
Substance: deltaE10-A98 CD80 IgV-Fc (Fc fusion)

Jurkat/IL2 + CHO/OKT3/PD-L1 reporter assay, RLU at CD80 Conc 5.0 nM (PD-L1 (human) [4]): 521 RLU
MFI at 33.3 nM (PD-L1 (human) [5]): 52 MFI
MFI at 33.3 nM (PD-L1 (human) [3]): 68 MFI
Substance: WT CD80 ECD-Fc (from UniProt P33681 35-242) (Fc fusion)

MFI at 33.3 nM [7]: 1330 MFI
Substance: variant CD80 IgV-Fc E35D/D46E/M47V/N63D/L85Q (from UniProt P33681 35-141) (Fc fusion)

MFI at 33.3 nM (human CTLA-4 (human) [8]): 193 MFI
Substance: CD80 IgV-Fc T13R/Q33R/E35D/M38I/M47L/V68M (from UniProt P33681 35-141) (Fc fusion)

MFI at 33.3 nM [9]: 434 MFI
Substance: variant CD80 IgV-Fc H18L/V22A/E35D/M47L/N48T/L85Q (from UniProt P33681 35-141) (Fc fusion)

MFI at 66.6 nM [12]: 11900 MFI
Substance: variant CD80 IgV-Fc K36R/G78A (from UniProt P33681 35-141) (Fc fusion)

MFI at 25 nM (CD112R [18]): 17800 MFI
MFI at 25 nM (CD226): 824 MFI
Substance: CD112-IgV (from UniProt Q92692 32-158) (Fc fusion)

MFI at 33.3 nM [9]: 433 MFI
Substance: variant CD80 IgV-Fc Q33L/E35D/T41S/M43I (from UniProt P33681 35-141) (Fc fusion)

MFI at 20 nM [19]: 132 MFI
MFI at 20 nM [20]: 59 MFI
Substance: Fc Control

MFI at 100 nM (CD112R [21]): 1660 MFI
Substance: variant CD112 IgV-Fc R12W/A46T/K66M/Q79R/N106I/T113A/S118F (from UniProt Q92692 32-158) (Fc fusion)

MFI at 100 nM (TIGIT [23]): 1960 MFI and 2180 MFI
Fold ↑ to WT ECD (TIGIT [24]): 0 fold
Substance: Wildtype (CD155 entry without mutations among the variant rows of Table 20B) (from UniProt P15151 21-142) (Fc fusion)

MFI at 33.3 nM [25]: 8510 MFI
Substance: variant CD80 IgV-Fc Q33K/E35D/D46V/L85Q (from UniProt P33681 35-141) (Fc fusion)

MFI at 33.3 nM [26]: 4690 MFI
Substance: variant CD80 IgV-Fc R29H/E35D/M43V/M47I/I49V (from UniProt P33681 35-141) (Fc fusion)

Fold increase over wildtype PD-L1 IgV-Fc [27]: 0.1 fold
MFI at 50 nM [27]: 306
Substance: PD-L1 A33D/S75P IgV-Fc (first entry) (from UniProt Q9NZQ7 19-132) (Fc fusion)

MFI at 33.3 nM [1]: 1024 MFI
Substance: variant CD80 IgV-Fc Q33L/E35D/M43I/Y53F/T62S/L85Q (from UniProt P33681 35-141) (Fc fusion)

Second part, the substance before the results:

Substance: variant CD80 IgV-Fc E35D/M42V/M47V/E52D/L85Q (from UniProt P33681 35-141) (Fc fusion)
MFI at 33.3 nM [1]: 1290 MFI

Substance: variant CD80 IgV-Fc deltaE10-A98 (Fc fusion)
Fold Increase over WT CD80-IgV-Fc [6]: 0.3 fold
Jurkat/IL2 + CHO/OKT3/PD-L1 Reporter Assay: Relative Luciferase Units (RLU), CD80-Fc Conc 5.0 nM [6]: 137 RLU

Substance: variant CD80 IgV-Fc E35D/M47L/A71G/L85Q (from UniProt P33681 35-141) (Fc fusion)
MFI at 33.3 nM [7]: 1440 MFI

Substance: variant CD80 IgV-Fc H18Y/E35D/M38I/M47L/V68M/L85M (from UniProt P33681 35-141) (Fc fusion)
MFI at 33.3 nM [10]: 16.7 MFI
MFI at 33.3 nM [11]: 139 MFI

Substance: Fc1.1 Control (from UniProt P0DOX5 218-448)
Relative Luciferase Units (RLU), Jurkat/IL2 + CHO/OKT3/PD-L1 reporter assay, CD80 Conc 5.0 nM [13]: 97 RLU

Substance: Fc only
MFI at 22.2 nM [14]: 4740 MFI
MFI at 66.6 nM [15]: 5960 MFI
MFI at 66.6 nM [16]: 2590 MFI

Substance: wild-type CD80 ECD-Fc (inert), Example 15 (from UniProt P33681 35-242) (Fc fusion)
RLU, Jurkat/IL2 + CHO/OKT3/PD-L1 Reporter Assay, CD80 Conc 5.0 nM (PD-L1 (human) [4]): 159 RLU
MFI at 33.3 nM (PD-L1 (human) [17]): 161 MFI

Substance: variant CD80 IgV-Fc E35D/Y53H/A71G/D90G/L97R (from UniProt P33681 35-141) (Fc fusion)
MFI at 33.3 nM [1]: 1550 MFI

Substance: variant CD80 IgV-Fc E35D/K37E/M47V/N48D/L85Q/D90N (from UniProt P33681 35-141) (Fc fusion)
MFI at 33.3 nM [7]: 1590 MFI

Substance: variant PD-L1 G15A/I36T/V129D/R195G Fc fusion (from UniProt Q9NZQ7 19-238)
MFI at 20 nM [22]: 125 MFI

Substance: E35D/D46E/M47L/V68M/L85Q/F92L CD80 IgV-Fc (from UniProt P33681 35-141) (Fc fusion)
MFI at 33.3 nM (CD28 (human)): 15 MFI

Substance: variant CD80 IgV-Fc Q33L/E35D/T41S/M47V (from UniProt P33681 35-141) (Fc fusion)
MFI at 33.3 nM [25]: 14500 MFI

Substance: CD112 A112V IgV-Fc (from UniProt Q92692 32-158) (Fc fusion)
MFI at 20 nM (CD96): 1210 MFI and 1180 MFI
